Tests used:
[1] = biological target: wildtype (WT) α-synuclein fibrils (human) (UniProt P37840); assay: flow-induced dispersion analysis
[2] = biological target: α-synuclein oligomers (human); assay: flow-induced dispersion analysis
[3] = biological target: wildtype (WT) α-synuclein fibrils (human) (UniProt P37840); assay: native gel or EMSA
[4] = biological target: wildtype (WT) α-synuclein fibrils (human) (UniProt P37840); assay: SPR

Row | Substance | Kd [1] | Kd [2] | percent of soluble, unbound BRICHOS [3] | apparent KD, strong binding of the two-phase model [4] | apparent KD, weak binding of the two-phase model [4]
1 | BRICHOS-Alexa488 (rh Bri2 BRICHOS R221E labelled with Alexa-488) (from UniProt Q9Y287 113-231) (domain or fragment) | 2.3 µM | 0.0782 µM |  |  | 
2 | recombinant human (rh) Bri2 BRICHOS R221E monomer (from UniProt Q9Y287 113-231) (domain or fragment) |  |  | 90.6% | 0.022 µM | 350 µM

From publication PMC11232276
